Measured values: patent US7098001B2, “Polypeptides having dipeptidyl aminopeptidase activity and nucleic acids encoding same” (Novozymes, Inc., priority 1997, dated 2006)

How the values were obtained:
[1] = pH optimum / pH-activity profile of dipeptidyl aminopeptidase I with Ala-Pro-pNA; format: biochemical; details: for Average Activty: 2 mg/ml Ala-Pro-pNA, ambient temperature, 5 minutes; for Avg. Activity-Background: corrected for autohydrolysis of Ala-Pro-pNA
Protocol: The Ala-Pro-pNA substrate was prepared by dissolving 100 mg of Ala-Pro-pNA in 1 ml of DMSO and adding 20 μl of the Ala-Pro-pNA-DMSO solution to 980 μl of the universal buffer at the various pH values at ambient temperature. The assay was initiated by adding a 10 μl aliquot of the dipeptidyl aminopeptidase I diluted 20-fold in water to 200 μl of 2 mg/ml Ala-Pro-pNA at the various pH values. The absorbance at 405 nm was monitored for 5 minutes. Autohydrolysis of the substrate as a control was determined by adding 10 μl of water to 200 μl of 2 mg/ml Ala-Pro-pNA at the various pH values.

[2] = synergism of aminopeptidase I and dipeptidyl aminopeptidase I on Ala-Phe-Pro-pNA; format: biochemical; details: 100-fold diluted enzyme alone, over 10 minutes
Protocol: The substrate was prepared by dissolving 2 mg of Ala-Phe-Pro-pNA (Bachem, Torrance, Calif.) in 20 μl of DMSO. Then, 980 μl of 50 mM sodium phosphate buffer pH 7.5 and 100 μl of ethanol were added. In a 96 well microtiter plate, 100 μl of the Ala-Phe-Pro-pNA solution was added to 100 μl of 100-fold diluted aminopeptidase I (Example 12); 100 μl of the Ala-Phe-Pro-pNA solution was added to 100 μl of 100-fold diluted dipeptidyl aminopeptidase I (Example 11); and 100 μl of the Ala-Phe-Pro-pNA solution was added to a mixture of 50 μl of 100-fold diluted aminopeptidase I and 50 μl of 100-fold diluted dipeptidyl aminopeptidase I. The absorbance at 405 nm was measured for 10 minutes.

B1: dipeptidyl aminopeptidase I: Recombinant Aspergillus oryzae 1568 (ATCC 20386) dipeptidyl aminopeptidase I, 771 amino acids (SEQ ID NO:2), produced in Fusarium and purified (protein, listed as Aspergillus oryzae)
chain: MKYSKLLLLLVSVVQALDVPRKPHAPTGEGSKRLTFNETVVKQAITPTSRSVQWLSGAEDGSYVYAAEDGSLTIENIVTNESRTLIPADKIPTGKEAFNYWIHPDLSSVLWASNHTKQYRHSFFADYYVQDVESLKSVPLMPDQEGDIQYAQWSPVGNTIAFVRENDLYVWDNGTVTRITDDGGPDMFHGVPDWIYEEEILGDRYALWFSPDGEYLAYLSFNETGVPTYTVQYYMDNQEIAPAYPWELKIRYPKVSQTNPTVTLSLLNIASKEVKQAPIDAFESTDLIIGEVAWLTDTHTTVAAKAFNRVQDQQKVVAVDTASNKATVISDRDGTDGWLDNLLSMKYIGPIKPSDKDAYYIDISDHSGWAHLYLFPVSGGEPIPLTKGDWEVTSILSIDQERQLVYYLSTQHHSTERHLYSVSYSTFAVTPLVDDTVAAYWSASFSANSGYYILTYGGPDVPYQELYTTNSTKPLRTITDNAKVLEQIKDYALPNITYFELPLPSGETLNVMQRLPPGFSPDKKYPILFTPYGGPGAQEVTKRWQALNFKAYVASDSELEYVTWTVDNRGTGFKGRKFRSAVTRQLGLLEAEDQIYAAQQAANIPWIDADHIGIWGWSFGGYLTSKVLEKDSGAFTLGVITAPVSDWRFYDSMYTERYMKTLSTNEEGYETSAVRKTDGFKNVEGGFLIQHGTGDDNVHFQNSAALVDLLMGDGVSPEKLHSQWFTDSDHGISYHGGGVFLYKQLARKLYQEKNRQTQVLMHQWTKKDLEE
pH of optimal activity ([1]; Ala-Pro-pNA as substrate): ~8.7 | pH range over which activity toward Ala-Pro-pNA was possessed ([1]; measured pH range): 4.35 to 9.83 | Average Activty ([1]; pH 4.35): 8.75 mOD/min | Avg. Activity-Background ([1]; pH 4.35): 8.75 mOD/min | Relative Activty ([1]; pH 4.35, relative to pH 8.71): 0.023 | Average Activty ([1]; pH 4.87): 32.5 mOD/min | Avg. Activity-Background ([1]; pH 4.87): 32.5 mOD/min | Relative Activty ([1]; pH 4.87, relative to pH 8.71): 0.088 | Average Activty ([1]; pH 5.36): 75.75 mOD/min | Avg. Activity-Background ([1]; pH 5.36): 75.75 mOD/min | Relative Activty ([1]; pH 5.36, relative to pH 8.71): 0.20 | Average Activty ([1]; pH 5.86): 113.8 mOD/min | Avg. Activity-Background ([1]; pH 5.86): 113.8 mOD/min | Relative Activty ([1]; pH 5.86, relative to pH 8.71): 0.307 | Average Activty ([1]; pH 6.38): 135.48 mOD/min | Avg. Activity-Background ([1]; pH 6.38): 135.48 mOD/min | Relative Activty ([1]; pH 6.38, relative to pH 8.71): 0.365 | Average Activty ([1]; pH 6.85): 168.45 mOD/min | Avg. Activity-Background ([1]; pH 6.85): 166.45 mOD/min | Relative Activty ([1]; pH 6.85, relative to pH 8.71): 0.45 | Average Activty ([1]; pH 7.2): 188.86 mOD/min | Avg. Activity-Background ([1]; pH 7.2): 186.86 mOD/min | Relative Activty ([1]; pH 7.2, relative to pH 8.71): 0.503 | Average Activty ([1]; pH 7.51): 230.97 mOD/min | Avg. Activity-Background ([1]; pH 7.51): 227.97 mOD/min | Relative Activty ([1]; pH 7.51, relative to pH 8.71): 0.615 | Average Activty ([1]; pH 7.97): 308.52 mOD/min | Avg. Activity-Background ([1]; pH 7.97): 302.72 mOD/min | Relative Activty ([1]; pH 7.97, relative to pH 8.71): 0.817 | Relative Activty ([1]; pH 8.71): 1 | Average Activty ([1]; pH 8.71): 383.15 mOD/min | Avg. Activity-Background ([1]; pH 8.71): 370.65 mOD/min | Average Activty ([1]; pH 9.32): 247.68 mOD/min | Avg. Activity-Background ([1]; pH 9.32): 217.88 mOD/min | Relative Activty ([1]; pH 9.32, relative to pH 8.71): 0.588 | Average Activty ([1]; pH 9.83): 171 mOD/min | Avg. Activity-Background ([1]; pH 9.83): 97 mOD/min | Relative Activty ([1]; pH 9.83, relative to pH 8.71): 0.261 | activity on Ala-Phe-Pro-pNA [2]: no activity
